The results in this text go back to paper PMC9723616.

By Ki is commonly meant the equilibrium dissociation constant of an inhibitor or competing ligand from its target.

The data set has as its target T1, FemX (UniProt Q9EY50 1-336).
T1 sequence: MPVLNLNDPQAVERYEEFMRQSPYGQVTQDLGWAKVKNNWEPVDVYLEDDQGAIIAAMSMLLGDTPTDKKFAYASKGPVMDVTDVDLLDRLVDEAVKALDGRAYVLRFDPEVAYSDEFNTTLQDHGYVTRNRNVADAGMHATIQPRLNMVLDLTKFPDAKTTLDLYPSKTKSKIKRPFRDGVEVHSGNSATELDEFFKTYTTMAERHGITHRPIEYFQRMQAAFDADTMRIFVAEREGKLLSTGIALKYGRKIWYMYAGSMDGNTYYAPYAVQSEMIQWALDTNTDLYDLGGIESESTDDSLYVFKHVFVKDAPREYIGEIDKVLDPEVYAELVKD
Description: competition.

B1: compound 20 (2'F-ANA stem peptidyl-helix, 24 nt) (XNA)
RNA: GGGGCCUUAGCUCAGGCUCCACCA
modifications: 2'F-ANA in stem (14 F); dC at penultimate position (pdCpA); 2'-azido-2'-deoxy A76 joined by triazole to UDP-MurNAc-pentapeptide
B1 showed a Ki of 221 ± 10 nM.

B2: compound 17 (2'F-RNA stem peptidyl-helix, 24 nt) (XNA)
RNA: GGGGCCUUAGCUCAGGCUCCACCA
modifications: 2'F-RNA in stem (14 F); dC at penultimate position (pdCpA); 2'-azido-2'-deoxy A76 joined by triazole to UDP-MurNAc-pentapeptide
As to B2, the Ki was determined as 0.397 ± 0.107 nM.
